Test results taken from US20250263697.

Assays:
[1] = biological target: NSP12 (RNA-dependent RNA polymerase) (SARS-CoV-2) (UniProt P0DTD1)
[2] = tested on: NSP8 (primase) (SARS-CoV-2)
[3] = tested on: N (nucleocapsid) (SARS-CoV-2); settings: eCLIP in infected Vero E6 cells

Row | Substance | binding signal [1] [fold] | binding signal [2] [fold] | binding signal [3] [fold]
1 | SARS-CoV-2 genome 5' end, positive strand | 573 | 107 | –
2 | SARS-CoV-2 genome 7436-7526, positive strand | 13.7 | – | –
3 | SARS-CoV-2 genome 9602-9620, positive strand | – | – | 9.5
